From US20140113831A1 (published 2014)

Target: T1, human PDGFRb (human, UniProt P09619 33-531)
T1 chain: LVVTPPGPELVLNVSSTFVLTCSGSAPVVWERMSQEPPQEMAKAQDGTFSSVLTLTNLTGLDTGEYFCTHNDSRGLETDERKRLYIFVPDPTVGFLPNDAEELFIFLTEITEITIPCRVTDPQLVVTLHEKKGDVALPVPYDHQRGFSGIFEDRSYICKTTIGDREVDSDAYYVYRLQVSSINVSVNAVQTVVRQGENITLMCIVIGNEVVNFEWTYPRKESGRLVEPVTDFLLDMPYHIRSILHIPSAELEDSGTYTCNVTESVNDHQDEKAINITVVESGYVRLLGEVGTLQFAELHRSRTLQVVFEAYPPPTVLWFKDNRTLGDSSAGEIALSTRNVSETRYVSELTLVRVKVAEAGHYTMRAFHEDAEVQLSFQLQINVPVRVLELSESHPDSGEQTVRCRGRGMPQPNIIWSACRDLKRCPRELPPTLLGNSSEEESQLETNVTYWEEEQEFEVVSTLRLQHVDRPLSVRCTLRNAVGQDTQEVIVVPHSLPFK
Assay: solution binding affinity (35S Met labeled)

B1: scFv XB2202-A4 (scFv, V domains shown)
VH: QVQLVQSGAEVKKPGSSVRVSCKASGGTFSRHAISWVRQAPGQGLEWIGGILPILKTPNYAQRFQGRVTINADESTSTVYMEMSSLRSEDTAVYYCATHGGDRSYWGQGTLVTVSS
VL: DVVMTQSPSSLSASVGDRVTITCQASQDISNWLNWYQQKPGKAPKLLIYEASNLETGVPSRFSGSGSGTDFTFTISSLQPEDIATYYCQQYNNVLRTFGQGTKVEIK
  Kd: 30 pM
